Experimental data as given in publication PMC4083444 (Nature Communications, 2014).
Changes are numbered by the printed parent chain. Names may count otherwise.

B1: TmCdsA S200C/S223C double-cysteine mutant (enzyme, Thermotoga maritima, UniProt Q9X1B7 1-270, looked up)
chain: MDDLKTRVITASVVAPFVVLCFVSYESLIGLVSAILILAGYELITLEMKERDARFFYVILLALYPVLYGLVFEEPTQPLSILFITGVVFSLITDKDPSQVFKTVAAFSIALIYVTFFLSFFLPIYRDFGAANALLVLTSTWVFDSFAYFTGLKFGRTRISPRYSPRKSLEGVIGGFLGVVIYTFLYRLVVNDLLSVNVICFRTFLPFAATVAIMDTFGDIFECALKRHYGVKDSGKTLPGHGGMLDRIDGLLFVAPVSYIVFKILEGVVR
modifications: mercury labels (CH3HgCl) bound to the endogenous and engineered Cys residues in the crystal
B2: TmCdsA S200C/S258C double-cysteine mutant (enzyme, Thermotoga maritima, UniProt Q9X1B7 1-270, looked up)
chain: B1 chain with C223S, S258C

Target: the molecule itself
Assay: crystal structure

Protein	binding result
B1	binds
B2	binds
